From patent publication US20230158141A1 (YAFEI SHANGHAI BIOLOG MEDICINE SCIENCE AND TECHNOLOGY, published 2023)
Positions count from the first letter of the chain named. Numbers in names are those of the source.

B1: anti-PD-1 antibody 2 HC Ala88Cys (antibody, human IgG4 S228P, kappa, V domains shown)
VH: QVQLVESGGGVVQPGRSLRLDCKASGITFSNSGMHWVRQAPGKGLEWVAVIWYDGSKRYYADSVKGRFTISRDNSKNTLFLQMNSLRCEDTAVYYCATNDDYWGQGTLVTVSS
VL: EIVLTQSPATLSLSPGERATLSCRASQSVSSYLAWYQQKPGQAPRLLIYDASNRATGIPARFSGSGSGTDFTLTISSLEPEDFAVYYCQQSSNWPRTFGQGTKVEIKR
modifications: arm on Cys88 as named in each row
B2: anti-PD-1 antibody 2 HC Ala92Cys (antibody, human IgG4 S228P, kappa, V domains shown)
VH: B1 VH with C88A, A92C
VL: B1 VL
modifications: arm on Cys92 as named in each row
B3: anti-PD-1 antibody 2 HC Thr69Cys (antibody, human IgG4 S228P, kappa, V domains shown)
VH: B1 VH with T69C, C88A
VL: B1 VL
modifications: arm on Cys69 as named in each row
B4: anti-PD-1 antibody 2 HC Ala24Cys (antibody, human IgG4 S228P, kappa, V domains shown)
VH: B1 VH with A24C, C88A
VL: B1 VL
modifications: arm on Cys24 as named in each row
B5: anti-PD-1 antibody 2 HC Ala40Cys (antibody, human IgG4 S228P, kappa, V domains shown)
VH: B1 VH with A40C, C88A
VL: B1 VL
modifications: arm on Cys40 as named in each row
B6: anti-PD-1 antibody 2 light chain A34C (antibody, human IgG4 S228P, kappa, V domains shown)
VH: B1 VH with C88A
VL: B1 VL with A34C
B7: anti-PD-1 antibody 2 light chain S30C (antibody, human IgG4 S228P, kappa, V domains shown)
VH: B1 VH with C88A
VL: B1 VL with S30C
B8: anti-PD-1 antibody 2 light chain S91C (antibody, human IgG4 S228P, kappa, V domains shown)
VH: B1 VH with C88A
VL: B1 VL with S91C
B9: anti-PD-1 antibody 2 light chain G57C (antibody, human IgG4 S228P, kappa, V domains shown)
VH: B1 VH with C88A
VL: B1 VL with G57C
B10: anti-PD-1 antibody 2 light chain T56C (antibody, human IgG4 S228P, kappa, V domains shown)
VH: B1 VH with C88A
VL: B1 VL with T56C
B11: anti-PD-1 antibody 2 light chain S26C (antibody, human IgG4 S228P, kappa, V domains shown)
VH: B1 VH with C88A
VL: B1 VL with S26C
B12: anti-PD-1 antibody 2 light chain S28C (antibody, human IgG4 S228P, kappa, V domains shown)
VH: B1 VH with C88A
VL: B1 VL with S28C
B13: anti-PD-1 antibody 2 light chain T97C (antibody, human IgG4 S228P, kappa, V domains shown)
VH: B1 VH with C88A
VL: B1 VL with T97C
B14: anti-PD-1 antibody 2 light chain S92C (antibody, human IgG4 S228P, kappa, V domains shown)
VH: B1 VH with C88A
VL: B1 VL with S92C
B15: anti-PD-1 antibody 2 light chain S31C (antibody, human IgG4 S228P, kappa, V domains shown)
VH: B1 VH with C88A
VL: B1 VL with S31C
B16: anti-PD-1 antibody 2 light chain S52C (antibody, human IgG4 S228P, kappa, V domains shown)
VH: B1 VH with C88A
VL: B1 VL with S52C
B17: anti-PD-1 antibody 1 light chain G28C (antibody, human IgG4 S228P, kappa, V domains shown)
VH: QVQLVQSGVEVKKPGASVKVSCKASGYTFTNYYMYWVRQAPGQGLEWMGGINPSNGGTNFNEKFKNRVTLTTDSSTTTAYMELKSLQFDDTAVYYCARRDYRFDMGFDYWGQGTTVTVSS
VL: EIVLTQSPATLSLSPGERATLSCRASKCVSTSGYSYLHWYQQKPGQAPRLLIYLASYLESGVPARFSGSGSGTDFTLTISSLEPEDFAVYYCQHSRDLPLTFGGGTKVEIKR
notes: also called PD-1-Ab1-Gly28Cys; PD1 Ab-C28
B18: anti-PD-1 antibody 1 light chain S95C (antibody, human IgG4 S228P, kappa, V domains shown)
VH: B17 VH
VL: B17 VL with C28G, S95C
B19: anti-PD-1 antibody 1 light chain S56C (antibody, human IgG4 S228P, kappa, V domains shown)
VH: B17 VH
VL: B17 VL with C28G, S56C
B20: anti-PD-1 antibody 1 light chain S32C (antibody, human IgG4 S228P, kappa, V domains shown)
VH: B17 VH
VL: B17 VL with C28G, S32C
B21: anti-PD-1 antibody 1 light chain S30C (antibody, human IgG4 S228P, kappa, V domains shown)
VH: B17 VH
VL: B17 VL with C28G, S30C
B22: anti-PD-1 antibody 1 light chain G61C (antibody, human IgG4 S228P, kappa, V domains shown)
VH: B17 VH
VL: B17 VL with C28G, G61C
B23: anti-PD-1 antibody 1 light chain S60C (antibody, human IgG4 S228P, kappa, V domains shown)
VH: B17 VH
VL: B17 VL with C28G, S60C
B24: anti-PD-1 antibody 1 light chain S26C (antibody, human IgG4 S228P, kappa, V domains shown)
VH: B17 VH
VL: B17 VL with S26C, C28G
B25: anti-PD-1 antibody 1 light chain S35C (antibody, human IgG4 S228P, kappa, V domains shown)
VH: B17 VH
VL: B17 VL with C28G, S35C
B26: anti-PD-1 antibody 1 light chain G33C (antibody, human IgG4 S228P, kappa, V domains shown)
VH: B17 VH
VL: B17 VL with C28G, G33C

These binders were tested against T1, PD-1 (UniProt Q15116 25-167, limits assumed) (assay: ELISA; S9 on the Cys).
T1 sequence (Q15116 25-167 limits assumed): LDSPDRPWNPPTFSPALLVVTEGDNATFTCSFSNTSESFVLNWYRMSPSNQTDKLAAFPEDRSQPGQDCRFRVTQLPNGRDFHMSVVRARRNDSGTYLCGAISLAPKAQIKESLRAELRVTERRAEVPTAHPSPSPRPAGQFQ

| Binder | binding activity, % of wild type [%] |
| --- | --- |
| B1 | 46.8 |
| B2 | 64.6 |
| B3 | 78.6 |
| B4 | 45.6 |
| B5 | 50.3 |

These binders were tested against T1, PD-1 (assay: ELISA; S13 on the Cys).

| Binder | binding activity, % of wild type [%] |
| --- | --- |
| B1 | 27 |
| B2 | 15 |
| B4 | 32.3 |
| B5 | 37.2 |

The binders below were run against T1, PD-1 (assay: ELISA; Cys mutant, no arm).

| Binder | binding activity, % of wild type [%] |
| --- | --- |
| B1 | 84.3 |
| B2 | 85 |
| B4 | 99.6 |
| B5 | 85.3 |

These binders were tested against PD-1 (UniProt Q15116 25-167, limits assumed) (assay: ELISA, OD mutant/OD WT; A=90-110%).
Target sequence in this assay (Q15116 25-167 limits assumed): as above

| Binder | binding activity (OD after mutation/OD wild type) [%] |
| --- | --- |
| B6 | 90 to 110 |
| B7 | 90 to 110 |
| B8 | 90 to 110 |
| B9 | 90 to 110 |
| B10 | 90 to 110 |
| B11 | 90 to 110 |
| B12 | 90 to 110 |
| B13 | 90 to 110 |
| B14 | 90 to 110 |
| B15 | 90 to 110 |
| B16 | 90 to 110 |
| B17 | 90 to 110 |
| B18 | 90 to 110 |
| B19 | 90 to 110 |
| B20 | 90 to 110 |
| B21 | 90 to 110 |
| B22 | 90 to 110 |
| B23 | 90 to 110 |
| B24 | 90 to 110 |
| B25 | 90 to 110 |
| B26 | 90 to 110 |
